Test results taken from patent US20080227698A1, “OLIGOPEPTIDES FOR TREATMENT OF OSTEOPOROSIS AND OTHER BONE DISEASES AND METHODS THEREOF” (Washington University, priority 2005, published 2008).

Key:
cytosolic β-catenin = test: Cytosolic β-catenin level by western blotting in LRP6-transduced HT1080 cells; type: cell-based, human; conditions: 0.5 to 5 nM Mesd, 2 hours at 37° C. (data not shown)
Protocol: […] After washing in ice-cold PBS, cells were collected and homogenized in a glass Dounce homogenizer in buffer consisting of 100 mM Tris-HCl pH 7.4, 140 mM NaCl, 2 mM DTT, 2 mM PMSF, and 1X Complete™ protease inhibitors (500 μl/well). The homogenate was centrifuged for 10 minutes at 500 g, and the supernatant was further centrifuged at 100,000 g at 4° C. for 90 minutes. The resulting supernatant was designated the cytosolic fraction. The β-catenin levels were then examined by western blotting using β-catenin-specific antibody from Cell Signaling Technology. The immunoreactive proteins were detected using the ECL system. Films showing immunoreactive bands were scanned with a Kodak Digital Science DC120 Zoom Digital Camera and band intensities were analyzed with Kodak Digital Science 1D Image Analysis Software.
β-catenin is a key molecule in the Wnt/β-catenin signaling pathway. A cytosolic pool of β-catenin interacts with DNA-binding proteins and participates in Wnt signal transduction (Hinck, L., J. Cell Biol. 125, 1327-13401994; Gottardi, C. J., J. Cell Biol. 153: 1049-1060, 2001; Klingelhofer, J., Oncogene 22, 1181-1188, 2003). To determine whether Mesd binding to cell surface LRP6 directly regulates Wnt signaling, the effects of Mesd binding on cytosolic P-catenin levels in HT1080-LRP6 cells were studied. […]

LRP6 = LRP6 (Homo sapiens, UniProt O75581); test: LRP6-mediated ^125I-DKK1 degradation in LRP6-transduced HT1080 cells; type: cell-based; parameters: plasmid pCS-Myc-hLRP6 containing the full-length human LRP6 cDNA; HA; expressed in transfected cells; host or cells: human HT1080 cells, stably transduced (pLNCX2 retroviral vector); conditions: 500 nM competitor, 4 hours at 37° C.
Sequence of LRP6 (O75581 20-1613): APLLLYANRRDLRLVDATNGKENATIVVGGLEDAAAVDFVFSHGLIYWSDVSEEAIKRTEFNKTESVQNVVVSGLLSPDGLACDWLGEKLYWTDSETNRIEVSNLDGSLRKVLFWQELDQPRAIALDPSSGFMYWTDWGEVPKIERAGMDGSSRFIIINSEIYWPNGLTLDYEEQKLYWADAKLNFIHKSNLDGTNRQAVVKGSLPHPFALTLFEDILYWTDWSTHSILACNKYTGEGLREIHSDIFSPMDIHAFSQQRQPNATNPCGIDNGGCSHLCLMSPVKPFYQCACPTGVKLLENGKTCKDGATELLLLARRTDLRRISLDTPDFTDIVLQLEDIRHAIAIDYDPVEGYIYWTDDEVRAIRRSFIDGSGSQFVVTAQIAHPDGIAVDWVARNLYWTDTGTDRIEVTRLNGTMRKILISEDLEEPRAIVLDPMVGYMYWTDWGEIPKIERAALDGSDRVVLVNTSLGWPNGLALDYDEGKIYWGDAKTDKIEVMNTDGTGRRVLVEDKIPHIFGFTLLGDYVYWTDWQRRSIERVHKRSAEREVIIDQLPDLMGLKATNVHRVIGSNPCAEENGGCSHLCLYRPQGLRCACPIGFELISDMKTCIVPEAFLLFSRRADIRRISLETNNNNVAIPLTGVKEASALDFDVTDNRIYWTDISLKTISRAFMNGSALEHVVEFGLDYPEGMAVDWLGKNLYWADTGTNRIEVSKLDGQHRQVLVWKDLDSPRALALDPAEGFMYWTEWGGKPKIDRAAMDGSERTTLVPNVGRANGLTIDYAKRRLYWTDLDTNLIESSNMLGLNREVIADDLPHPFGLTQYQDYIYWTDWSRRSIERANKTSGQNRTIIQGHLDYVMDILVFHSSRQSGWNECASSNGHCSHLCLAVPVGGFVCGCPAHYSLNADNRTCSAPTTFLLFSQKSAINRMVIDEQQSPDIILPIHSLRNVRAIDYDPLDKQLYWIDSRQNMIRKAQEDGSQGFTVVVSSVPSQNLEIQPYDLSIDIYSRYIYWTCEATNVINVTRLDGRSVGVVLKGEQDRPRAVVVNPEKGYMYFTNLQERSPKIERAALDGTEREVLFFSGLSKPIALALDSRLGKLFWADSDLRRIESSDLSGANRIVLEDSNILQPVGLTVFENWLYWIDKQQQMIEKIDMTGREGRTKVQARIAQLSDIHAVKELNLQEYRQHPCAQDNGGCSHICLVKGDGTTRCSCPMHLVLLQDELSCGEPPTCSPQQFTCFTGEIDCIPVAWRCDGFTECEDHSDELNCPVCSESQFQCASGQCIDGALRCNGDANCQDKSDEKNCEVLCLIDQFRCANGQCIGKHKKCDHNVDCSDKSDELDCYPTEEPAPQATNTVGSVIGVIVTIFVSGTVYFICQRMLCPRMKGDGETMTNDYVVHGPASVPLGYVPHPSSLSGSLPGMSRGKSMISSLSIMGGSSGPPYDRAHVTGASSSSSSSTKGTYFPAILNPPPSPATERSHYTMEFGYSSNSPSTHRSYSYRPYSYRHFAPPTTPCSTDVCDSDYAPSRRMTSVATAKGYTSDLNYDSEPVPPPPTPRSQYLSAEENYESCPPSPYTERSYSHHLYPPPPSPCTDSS
Protocol: Ligand degradation was performed using the methods as described (Li, Y., J. Biol. Chem. 275: 17187-17194, 2000). Briefly, 2×10^5 cells were seeded into 12-well dishes 1 day prior to assay. Pre-warmed assay buffer (minimal Eagle's medium containing 0.6% BSA with radioligand, 0.6 ml/well) was added to cell monolayers in the absence or the presence of unlabeled 500 nM RAP or 500 nM Mesd, followed by incubation for 4 hours at 37° C. Thereafter, the medium overlying the cell monolayers was removed and proteins were precipitated by addition of BSA to 10 mg/ml and trichloroacetic acid to 20%. […] After each time point, the plates were quickly placed on ice and the assay buffer was replaced with cold stop/strip solution. ^125I-anti-HA IgG that remained on the cell surface was stripped by incubation of cell monolayers with cold stop/strip solution for a total of 20 minutes (0.75 ml for 10 minutes, twice) and counted. Cell monolayers were then solubilized with low-SDS lysis buffer and counted. […] The fraction of internalized ^125I-anti-HA IgG after each time point was calculated and plotted.
RAP is a receptor antagonist for members of the LDLR family, and is able to inhibit the binding of most known ligands of the LDLR family members. […] Cell-surface-bound Myc-tagged DKK proteins were fixed and detected by immunofluorescence staining with anti-Myc antibody. […]

Effect of excess unlabeled competitor on increased DKK1 degradation (LRP6): abolished
B1: Mesd: recombinant wild-type mouse Mesd, polyhistidine tail at the N-terminus, lacks the signal peptide, expressed in E. coli (protein)
chain: ADTPGEATPPPRKKKDIRDYNDADMARLLEQWEKDDDIEEGDLPEHKRPSAPIDFSKLDPGKPESILKMTKKGKTLMMFVTVSGNPTEKETEEITSLWQGSLFNANYDVQRFIVGSDRAIFMLRDGSYAWEIKDFLVSQDRCAEVTLEGQMYPGKGGGSKEKNKTKPEKAKKKEGDRKPRASKEDNRAGSRREDL
modifications: left off: small tags and cut ends
notes: recombinant wild-type mouse Mesd, polyhistidine tail at the N-terminus, lacks the signal peptide, expressed in E. coli
Change in cytosolic β-catenin levels (cytosolic β-catenin): no significant change
